Experimental data from patent US20250197486A1 (Novartis, published 2025).

Target: T1, human VEGF165 (human, UniProt P15692 27-191)
T1 construct: mature; The canonical UniProt entry is a longer isoform, so the VEGF165 isoform must be chosen; also called recombinant VEGF165 protein; VEGF-A
Experiment: SPR, in vitro, recombinant VEGF165, 37 °C
Description: The brolucizumab: VEGF binding parameter values (Table 8) were defined on the basis of a surface plasmon resonance (SPR) in vitro binding experiment with drug and recombinant VEGF165 protein at 37° C. These in vitro measured brolucizumab: VEGF binding parameter values were then scaled similar to ranibizumab to obtain in vivo estimates. […] The scaling is performed such that the koff is kept constant and the kon is divided by the scaling factor.

T1 sequence (P15692 other isoform, or with tags, fused parts or gaps): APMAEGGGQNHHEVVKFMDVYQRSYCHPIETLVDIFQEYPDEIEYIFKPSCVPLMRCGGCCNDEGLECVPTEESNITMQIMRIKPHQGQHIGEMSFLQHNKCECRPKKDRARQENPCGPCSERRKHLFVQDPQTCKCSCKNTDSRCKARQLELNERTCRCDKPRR

B1: brolucizumab (scFv)
scFv: MEIVMTQSPSTLSASVGDRVIITCQASEIIHSWLAWYQQKPGKAPKLLIYLASTLASGVPSRFSGSGSGAEFTLTISSLQPDDFATYYCQNVYLASTNGANFGQGTKLTVLGGGGGSGGGGSGGGGSGGGGSEVQLVESGGGLVQPGGSLRLSCTASGFSLTDYYYMTWVRQAPGKGLEWVGFIDPDDDPYYATWAKGRFTISRDNSKNTLYLQMNSLRAEDTAVYYCAGGDHNSGWGLDIWGQGTLVTVSS
notes: Humanized scFv of about 26 kDa, VL-linker-VH; also called Beovu; drug
Kd: 101 pM
koff: 0.00025 s⁻¹
kon: 2.5e+06 M⁻¹ s⁻¹
